In patent publication US20220153819A1 (Regeneron, published 2022):
Like-named read-outs stand apart in the source and are kept apart here.

Experiments:
[1] = target: T1, hemagglutinin (HA) on A/Puerto Rico/08/1934 (H1N1)-infected MDCK cells (Influenza A virus A/Puerto Rico/08/1934 …, UniProt P03452 18-565); test: cell ELISA on fixed A/Puerto Rico/08/1934 (H1N1)-infected MDCK cells
T1 construct: whole, on cells; also called Influenza HA

[2] = target: T2, biotinylated human C1q (human, UniProt P02745 23-245; P02746 28-253; P02747 29-245); test: SPR (Biacore), 37C; biotinylated hC1q captured at low density, bsAb injected
T2 construct: also called Bt hC1q; bt-hC1q
T2 sequence (P02745 23-245, chain 1 of 3): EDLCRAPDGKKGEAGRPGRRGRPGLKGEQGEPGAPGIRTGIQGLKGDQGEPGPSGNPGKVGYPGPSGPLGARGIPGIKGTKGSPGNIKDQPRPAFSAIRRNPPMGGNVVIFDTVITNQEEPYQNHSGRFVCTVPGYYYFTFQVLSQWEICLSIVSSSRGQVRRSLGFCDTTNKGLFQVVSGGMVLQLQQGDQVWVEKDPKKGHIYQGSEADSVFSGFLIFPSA
T2 sequence (P02746 28-253, chain 2 of 3): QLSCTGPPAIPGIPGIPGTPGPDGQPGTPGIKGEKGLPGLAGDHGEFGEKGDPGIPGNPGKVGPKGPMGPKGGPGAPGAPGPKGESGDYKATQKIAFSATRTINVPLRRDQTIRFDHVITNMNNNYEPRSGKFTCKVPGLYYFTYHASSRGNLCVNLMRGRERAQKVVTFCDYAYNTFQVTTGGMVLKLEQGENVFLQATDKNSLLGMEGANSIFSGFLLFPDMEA
T2 sequence (P02747 29-245, chain 3 of 3): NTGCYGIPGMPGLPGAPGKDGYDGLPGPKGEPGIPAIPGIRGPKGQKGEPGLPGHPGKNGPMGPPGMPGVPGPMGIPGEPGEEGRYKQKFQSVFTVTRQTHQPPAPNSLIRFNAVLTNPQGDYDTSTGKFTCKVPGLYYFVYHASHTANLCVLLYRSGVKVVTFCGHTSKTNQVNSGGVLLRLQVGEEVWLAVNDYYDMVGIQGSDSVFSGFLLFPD

[3] = target: mouse C1q (mouse, UniProt P98086 23-245; P14106 26-253; Q02105 30-246); test: not described
Chain of mouse C1q (P98086 23-245 limits assumed, chain 1 of 3): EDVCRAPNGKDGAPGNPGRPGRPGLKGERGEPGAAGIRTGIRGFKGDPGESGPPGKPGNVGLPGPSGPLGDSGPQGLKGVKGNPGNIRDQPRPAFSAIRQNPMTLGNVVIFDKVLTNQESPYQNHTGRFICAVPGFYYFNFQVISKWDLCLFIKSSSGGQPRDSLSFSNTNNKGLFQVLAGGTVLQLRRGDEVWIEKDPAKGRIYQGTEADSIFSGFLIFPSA
Chain of mouse C1q (P14106 26-253 limits assumed, chain 2 of 3): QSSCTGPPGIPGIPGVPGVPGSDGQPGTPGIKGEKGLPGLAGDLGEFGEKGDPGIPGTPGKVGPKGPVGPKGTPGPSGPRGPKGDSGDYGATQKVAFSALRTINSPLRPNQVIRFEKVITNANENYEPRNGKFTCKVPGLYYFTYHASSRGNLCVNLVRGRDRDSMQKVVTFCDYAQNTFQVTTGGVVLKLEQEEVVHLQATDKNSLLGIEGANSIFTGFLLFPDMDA
Chain of mouse C1q (Q02105 30-246 limits assumed, chain 3 of 3): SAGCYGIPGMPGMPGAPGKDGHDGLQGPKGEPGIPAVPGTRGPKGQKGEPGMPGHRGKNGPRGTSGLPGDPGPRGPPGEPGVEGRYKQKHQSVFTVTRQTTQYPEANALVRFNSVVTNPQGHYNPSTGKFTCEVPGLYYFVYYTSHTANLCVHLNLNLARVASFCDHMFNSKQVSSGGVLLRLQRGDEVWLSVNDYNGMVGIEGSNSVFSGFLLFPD

[4] = target: T3, human complement component 1q (C1q) (human, UniProt P02745 23-245; P02746 28-253; P02747 29-245)
T3 sequence (P02745 23-245, chain 1 of 3): as the sequence (P02745 23-245, chain 1 of 3) above
T3 sequence (P02746 28-253, chain 2 of 3): as the sequence (P02746 28-253, chain 2 of 3) above
T3 sequence (P02747 29-245, chain 3 of 3): as the sequence (P02747 29-245, chain 3 of 3) above

[5] = target: T3, human complement component 1q (C1q); remark: listed apart in the source
[6] = target: T3, human complement component 1q (C1q); test: SPR (Biacore T200), 37C; bsAb captured via anti-human F(ab')2, hC1q injected
[7] = target: T4, IsdB.6×(His) (Staphylococcus aureus, UniProt A6QG30 41-613); test: SPR (Biacore T200), 37C; antibody captured, IsdB.6xHis injected
[8] = target: T2, biotinylated human C1q
[9] = target: T4, IsdB.6×(His); test: SPR (Biacore T200), 25C; bsAb captured, IsdB-6xHis injected
[10] = target: T1, hemagglutinin (HA) on A/Puerto …; test: cell-based or functional assay
[11] = target: T3, human complement component 1q (C1q); test: cell-based or functional assay
[12] = target: T4, IsdB.6×(His); test: SPR (Biacore), 37C; IsdB.6xHis captured, bsAb injected
[13] = target: T4, IsdB.6×(His); test: SPR (Biacore 8k), 37C; IsdB-6xHis captured via anti-His, bsAb injected
[14] = target: T5, IsdB on the surface of S. aureus Newman Δspa (Staphylococcus aureus, UniProt A6QG30 41-613); test: ELISA, plate coated with S. aureus Newman Δspa, luminescence
T5 construct: whole, on cells; also called iron-regulated surface determinant protein B

[15] = target: T4, IsdB.6×(His); test: SPR (Biacore T200), 37C; bsAb captured, IsdB-6xHis injected
[16] = target: T2, biotinylated human C1q; remark: listed apart in the source
[17] = target: T3, human complement component 1q (C1q); test: SPR (Biacore T200), 25C; bsAb captured via anti-human F(ab')2, hC1q injected
[18] = target: T4, IsdB.6×(His); test: SPR (Biacore 8k), 25C; IsdB-6xHis captured via anti-His, bsAb injected
[19] = target: T6, Protein A of S. aureus (ELISA on S. aureus Newman Δspa as printed) (Staphylococcus aureus); test: ELISA, plate coated with S. aureus Newman Δspa, luminescence
T6 construct: whole, on cells

[20] = target: T3, human complement component 1q (C1q)
[21] = target: T2, biotinylated human C1q; remark: listed apart in the source
[22] = target: T2, biotinylated human C1q; remark: listed apart in the source

B1: REGN5066, anti-IsdB x anti-C1q bispecific antibody (bispecific antibody, V domains shown)
VH 1: EVQLVESGGGLVQPGRSLRLSCTTSGFTFDDYAMHWVRQVPGQGLEWVAGLSWNSDTIGYADSVKGRFTISRDNAKNSLYLQMKSLKAEDTALYYCTKDFYHSLNNWNYYYFDYWGQGTLVTVSS
VH 2: EVQLVESGGGVVQPGGSLRLSCAASGFSLDDYAMHWVRQTPGKGLEWVSLISGDGSRTSYADSVKGRFTISRDNSKNSLYLKMNSLRTEDTALYYCTKDPHNSNWFDPWGQGTLVTVSS
VL: not shown
notes: also called bsC1q × IsdB; bs hC1q × IsdB
Maximum binding (RLUs) [1]: 2500 RLU | Kd [2]: 3670 nM | T1/2 [2]: 0.12 min | koff [2]: 0.0964 s⁻¹ | kon [2]: 26200 M⁻¹ s⁻¹ | binding result [3]: no binding | Kd [4]: 3.23 nM | T1/2 [4]: 3.5 min | koff [4]: 0.00334 s⁻¹ | kon [4]: 1.03e+06 M⁻¹ s⁻¹ | Kd [5]: 1.56 nM | T1/2 [5]: 2.3 min | koff [5]: 0.00502 s⁻¹ | kon [5]: 3.22e+06 M⁻¹ s⁻¹ | koff [6]: 0.00502 s⁻¹ | kon [6]: 3.22e+06 M⁻¹ s⁻¹ | t1/2 [6]: 2.3 min | Kd [7]: 3.43 nM | T1/2 [7]: 21 min | koff [7]: 0.000557 s⁻¹ | kon [7]: 163000 M⁻¹ s⁻¹ | Kd [8]: 402 nM | koff [8]: 0.0366 s⁻¹ | kon [8]: 91100 M⁻¹ s⁻¹ | t1/2 [8]: 0.32 min | Kd [9]: 2.36 nM | koff [9]: 0.00027 s⁻¹ | kon [9]: 115000 M⁻¹ s⁻¹ | t1/2 [9]: 42.8 min | CDC EC50 (H1N1-infected MDCK cells) [10]: > 889 nM | Maximum percent specific lysis (CDC of H1N1-infected MDCK cells) [10]: -6.15% | C1q deposition on S. aureus (plate-based, anti-C1q detection), EC50 [11]: 0.127 nM | Kd [12]: 7.52 nM | T1/2 [12]: 1.8 min | koff [12]: 0.00657 s⁻¹ | kon [12]: 874000 M⁻¹ s⁻¹ | Kd [13]: 7.52 nM | koff [13]: 0.00657 s⁻¹ | kon [13]: 874000 M⁻¹ s⁻¹ | t½ [13]: 1.8 min | EC50 [14]: 0.19 nM | Kd [15]: 3.43 nM | koff [15]: 0.000557 s⁻¹ | kon [15]: 163000 M⁻¹ s⁻¹ | t1/2 [15]: 20.7 min | Kd [16]: 666 nM | koff [16]: 0.0782 s⁻¹ | kon [16]: 117000 M⁻¹ s⁻¹ | t1/2 [16]: 0.15 min | Kd [17]: 0.842 nM | koff [17]: 0.00211 s⁻¹ | kon [17]: 2.51e+06 M⁻¹ s⁻¹ | t1/2 [17]: 5.5 min | Kd [18]: 2.3 nM | koff [18]: 0.00105 s⁻¹ | kon [18]: 457000 M⁻¹ s⁻¹ | t1/2 [18]: 11 min

B2: REGN5551, anti-Protein A x anti-C1q bispecific antibody (bispecific antibody, V domains shown)
VH 1: EVQLVESGGGLVQPGGSLRLSCAASGFTFTSYDMHWVRQATGKGLEWVSNIDPAGNTFYPGSVKGRFTISRENAKKSLYLQMNSLRAGDTAVYYCARNLGNWGYDHWGQGTLVTVSS
VH 2: EVQLVESGGGVVQPGGSLRLSCAASGFSLDDYAMHWVRQTPGKGLEWVSLISGDGSRTSYADSVKGRFTISRDNSKNSLYLKMNSLRTEDTALYYCTKDPHNSNWFDPWGQGTLVTVSS
VL: not shown
notes: also called bsC1q × Protein A; bs hC1q × protein A
Kd [5]: 1.36 nM | koff [5]: 0.00488 s⁻¹ | kon [5]: 3.06e+06 M⁻¹ s⁻¹ | EC50 [19]: 0.148 nM

B3: REGN5067, anti-IsdB x anti-C1q bispecific antibody (bispecific antibody, V domains shown)
VH 1: EVQLVESGGGLVQPGRSLRLSCTTSGFTFDDYAMHWVRQVPGQGLEWVAGLSWNSDTIGYADSVKGRFTISRDNAKNSLYLQMKSLKAEDTALYYCTKDFYHSLNNWNYYYFDYWGQGTLVTVSS
VH 2: EVQLVQSGAEVKKPGESLKIFCKGSGYSFINDWIGWVRQMPGKGLEWMGLIFPGDSDTRYSPVFQGHVTISADQSIDTAYLQWNSLKASDTAIYYCAVLRYWHFAIWGRGTLVTVSS
VL: not shown
koff [6]: 0.0134 s⁻¹ | kon [6]: 6.52e+06 M⁻¹ s⁻¹ | t1/2 [6]: 0.9 min | koff [8]: 0.365 s⁻¹ | kon [8]: 168000 M⁻¹ s⁻¹ | t1/2 [8]: 0.03 min | Kd [9]: 1.7 nM | koff [9]: 0.000204 s⁻¹ | kon [9]: 120000 M⁻¹ s⁻¹ | t1/2 [9]: 56.6 min | Kd [15]: 3.33 nM | koff [15]: 0.00052 s⁻¹ | kon [15]: 156000 M⁻¹ s⁻¹ | t1/2 [15]: 22.2 min | koff [16]: 0.844 s⁻¹ | kon [16]: 224000 M⁻¹ s⁻¹ | t1/2 [16]: 0.01 min | koff [17]: 0.00435 s⁻¹ | kon [17]: 5.78e+06 M⁻¹ s⁻¹ | t1/2 [17]: 2.7 min | Kd [20]: 2.05 nM | Kd [21]: 2180 nM | Kd [18]: 3.01 nM | koff [18]: 0.000989 s⁻¹ | kon [18]: 328000 M⁻¹ s⁻¹ | t1/2 [18]: 11.7 min | Kd [22]: 3770 nM
